Data taken from patent publication US20040096901A1.
Values joined by “and” are separate entries in the source; they are usually repeats but may differ in a detail not shown here. Equal values may be shown once.

Biological target: CD45 antigen (leukocyte common antigen), human, on cells (human) (UniProt P08575)
Assay: cell-based or functional assay

- % of Inhibition of primary MLR (responder #211 CD4, stimulator #219 CD3), 10 ug/ml mAb: 63.5%
- % of Inhibition of primary MLR (responder #220 CD4, stimulator #219 CD3 depl.), 10 ug/ml mAb: 63.1%
- % of Inhibition of primary MLR (responder #227 CD4, stimulator #220 CD3 depl.), 10 ug/ml mAb: 66%
- % of Inhibition of primary MLR (responder #229 CD4, stimulator #219 CD3 depl.), 10 ug/ml mAb: 50.8%
- IC50 for the inhibition of primary MLR (cellular activity IC50): 0.87 nM and 0.13 µg/ml
B1: chimeric anti-CD45RO/RB mAb "candidate mAb" (antibody, human IgG1, kappa, V domains shown)
VH: EVQLQQSGPELVKPGASVKMSCKASGYTFTNYIIHWVKQEPGQGLEWIGYFNPYNHGTKYNEKFKGRATLTADKSSNTAYMDLSSLTSEDSAIYYCARSGPYAWFDTWGQGTTVTVSS
VL: DILLTQSPAILSVSPGERVSFSCRASQNIGTSIQWYQQRTNGSPRLLIRSSSESISGIPSRFSGSGSGTDFTLSINSVESEDIADYYCQQSNTWPFTFGSGTKLEIKR
